Test results taken from patent publication US20260242735A1 (UNIVERSIT T BASEL, published 2026).

How the values were obtained:
Assay in all cases: flow cytometry on HEK293-T, alanine scan
[1] = target: human CD33 R144A (human, UniProt P20138 18-364)
[2] = target: human CD33 V106A (human, UniProt P20138 18-364)
[3] = target: human CD33 L161A (human, UniProt P20138 18-364)
[4] = target: human CD33 G114A (human, UniProt P20138 18-364)
[5] = target: human CD33 Y129A (human, UniProt P20138 18-364)
[6] = target: human CD33 S135A (human, UniProt P20138 18-364)
[7] = target: human CD33 I147A (human, UniProt P20138 18-364)
Sequence of human CD33 I147A (P20138 18-364 I147A limits assumed): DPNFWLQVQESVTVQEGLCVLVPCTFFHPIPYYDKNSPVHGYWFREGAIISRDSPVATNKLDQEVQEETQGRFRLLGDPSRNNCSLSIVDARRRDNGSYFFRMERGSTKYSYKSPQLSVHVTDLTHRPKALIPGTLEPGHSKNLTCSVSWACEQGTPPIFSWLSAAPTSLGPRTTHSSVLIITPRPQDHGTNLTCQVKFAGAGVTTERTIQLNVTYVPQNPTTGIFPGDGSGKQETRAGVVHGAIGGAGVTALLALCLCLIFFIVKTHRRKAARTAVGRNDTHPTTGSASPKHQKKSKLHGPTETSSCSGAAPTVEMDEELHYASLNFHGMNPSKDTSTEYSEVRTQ

[8] = target: human CD33 H137A (human, UniProt P20138 18-364)
Sequence of human CD33 H137A (P20138 18-364 H137A limits assumed): as the sequence (P20138 18-364 I147A limits assumed) above, with H120A, A130I counted along it

[9] = target: human CD33 R122A (human, UniProt P20138 18-364)
[10] = target: human CD33 L148A (human, UniProt P20138 18-364)
Sequence of human CD33 L148A (P20138 18-364 L148A limits assumed): as the sequence (P20138 18-364 I147A limits assumed) above, with A130I, L131A counted along it

[11] = target: human CD33 L141A (human, UniProt P20138 18-364)
Sequence of human CD33 L141A (P20138 18-364 L141A limits assumed): as the sequence (P20138 18-364 I147A limits assumed) above, with L124A, A130I counted along it

[12] = target: human CD33 A108S (human, UniProt P20138 18-364)
Sequence of human CD33 A108S (P20138 18-364 A108S limits assumed): as the sequence (P20138 18-364 I147A limits assumed) above, with A91S, A130I counted along it

[13] = target: human CD33 G151A (human, UniProt P20138 18-364)
[14] = target: human CD33 L93A (human, UniProt P20138 18-364)
Sequence of human CD33 L93A (P20138 18-364 L93A limits assumed): as the sequence (P20138 18-364 I147A limits assumed) above, with L76A, A130I counted along it

[15] = target: human CD33 S164A (human, UniProt P20138 18-364)
[16] = target: human CD33 I105A (human, UniProt P20138 18-364)
[17] = target: human CD33 R111A (human, UniProt P20138 18-364)
Sequence of human CD33 R111A (P20138 18-364 R111A limits assumed): as the sequence (P20138 18-364 I147A limits assumed) above, with R94A, A130I counted along it

[18] = target: human CD33 R110A (human, UniProt P20138 18-364)
Sequence of human CD33 R110A (P20138 18-364 R110A limits assumed): as the sequence (P20138 18-364 I147A limits assumed) above, with R93A, A130I counted along it

[19] = target: human CD33 L134A (human, UniProt P20138 18-364)
Sequence of human CD33 L134A (P20138 18-364 L134A limits assumed): as the sequence (P20138 18-364 I147A limits assumed) above, with L117A, A130I counted along it

[20] = target: human CD33 R119A (human, UniProt P20138 18-364)
[21] = target: human CD33 G123A (human, UniProt P20138 18-364)
Sequence of human CD33 G123A (P20138 18-364 G123A limits assumed): as the sequence (P20138 18-364 I147A limits assumed) above, with G106A, A130I counted along it

[22] = target: human CD33 D112A (human, UniProt P20138 18-364)
[23] = target: human CD33 P96A (human, UniProt P20138 18-364)
[24] = target: human CD33 S128A (human, UniProt P20138 18-364)
[25] = target: human CD33 D107A (human, UniProt P20138 18-364)
[26] = target: human CD33 S97A (human, UniProt P20138 18-364)
[27] = target: human CD33 H157A (human, UniProt P20138 18-364)
[28] = target: human CD33 T125A (human, UniProt P20138 18-364)
[29] = target: human CD33 S102A (human, UniProt P20138 18-364)
[30] = target: human CD33 P155A (human, UniProt P20138 18-364)
[31] = target: human CD33 S115A (human, UniProt P20138 18-364)
[32] = target: human CD33 N160A (human, UniProt P20138 18-364)
Sequence of human CD33 N160A (P20138 18-364 N160A limits assumed): as the sequence (P20138 18-364 I147A limits assumed) above, with A130I, N143A counted along it

[33] = target: human CD33 L103A (human, UniProt P20138 18-364)
[34] = target: human CD33 T152A (human, UniProt P20138 18-364)
[35] = target: human CD33 E121A (human, UniProt P20138 18-364)
[36] = target: human CD33 V138A (human, UniProt P20138 18-364)
Sequence of human CD33 V138A (P20138 18-364 V138A limits assumed): as the sequence (P20138 18-364 I147A limits assumed) above, with V121A, A130I counted along it

Sequence of human CD33 V106A (P20138 18-364 V106A limits assumed): as the sequence (P20138 18-364 I147A limits assumed) above, with V89A, A130I counted along it
Sequence of human CD33 Y129A (P20138 18-364 Y129A limits assumed): as the sequence (P20138 18-364 I147A limits assumed) above, with Y112A, A130I counted along it

B1: Refmab #4 (antibody, V domains shown)
VH: QVQLVQSGAEVKKPGESVKVSCKASGYTFTNYGMNWVKQAPGQGLEWMGWINTYTGEPTYADKFQGRVTMTTDTSTSTAYMEIRNLGGDDTAVYYCARWSWSDGYYVYFDYWGQGTSVTVSS
VL: DIVMTQSPDSLTVSLGERTTINCKSSQSVLDSSTNKNSLAWYQQKPGQPPKLLLSWASTRESGIPDRFSGSGSGTDFTLTIDSPQPEDSATYYCQQSAHFPITFGQGTRLEIK
notes: The alanine scan used IgG or Fab
- Mean % WT Binding [1]: 99.7 % WT binding
- Mean % WT Binding [2]: 110 % WT binding
- Mean % WT Binding [3]: 114 % WT binding
- Mean % WT Binding [4]: 110 % WT binding
- Mean % WT Binding [5]: 319 % WT binding
- Mean % WT Binding [6]: 109 % WT binding
- Mean % WT Binding [7]: 58.7 % WT binding
- Mean % WT Binding [8]: 108 % WT binding
- Mean % WT Binding [9]: 23 % WT binding
- Mean % WT Binding [10]: 113 % WT binding
- Mean % WT Binding [11]: 93.7 % WT binding
- Mean % WT Binding [12]: 86.5 % WT binding
- Mean % WT Binding [13]: 101 % WT binding
- Mean % WT Binding [14]: 63.9 % WT binding
- Mean % WT Binding [15]: 112 % WT binding
- Mean % WT Binding [16]: 21.6 % WT binding
- Mean % WT Binding [17]: 94.3 % WT binding
- Mean % WT Binding [18]: 88.4 % WT binding
- Mean % WT Binding [19]: 82.2 % WT binding
- Mean % WT Binding [20]: 138 % WT binding
- Mean % WT Binding [21]: 97.9 % WT binding
- Mean % WT Binding [22]: 36 % WT binding
- Mean % WT Binding [23]: 27.4 % WT binding
- Mean % WT Binding [24]: 184 % WT binding
- Mean % WT Binding [25]: 93 % WT binding
- Mean % WT Binding [26]: 121 % WT binding
- Mean % WT Binding [27]: 97.4 % WT binding
- Mean % WT Binding [28]: 218 % WT binding
- Mean % WT Binding [29]: 73.6 % WT binding
- Mean % WT Binding [30]: 111 % WT binding
- Mean % WT Binding [31]: 36.4 % WT binding
- Mean % WT Binding [32]: 102 % WT binding
- Mean % WT Binding [33]: 85.9 % WT binding
- Mean % WT Binding [34]: 110 % WT binding
- Mean % WT Binding [35]: 77.3 % WT binding

B2: Refmab #3 (antibody, V domains shown)
VH: QVQLVQSGAEVKKPGSSVKVSCKASGYTFTDYNMHWVRQAPGQGLEWIGYIYPYNGGTGYNQKFKSKATITADESTNTAYMELSSLRSEDTAVYYCARGRPAMDYWGQGTLVTVSS
VL: DIQMTQSPSSLSASVGDRVTITCRASESVDNYGISFMNWFQQKPGKAPKLLIYAASNQGSGVPSRFSGSGSGTDFTLTISSLQPDDFATYYCQQSKEVPWTFGQGTKVEIK
notes: as for B1
- Mean % WT Binding [1]: 112 % WT binding
- Mean % WT Binding [2]: 85.7 % WT binding
- Mean % WT Binding [36]: 129 % WT binding
- Mean % WT Binding [3]: 116 % WT binding
- Mean % WT Binding [4]: 92.6 % WT binding
- Mean % WT Binding [6]: 107 % WT binding
- Mean % WT Binding [7]: 67.1 % WT binding
- Mean % WT Binding [8]: 100 % WT binding
- Mean % WT Binding [9]: 177 % WT binding
- Mean % WT Binding [10]: 108 % WT binding
- Mean % WT Binding [11]: 153 % WT binding
- Mean % WT Binding [12]: 98 % WT binding
- Mean % WT Binding [13]: 108 % WT binding
- Mean % WT Binding [14]: 120 % WT binding
- Mean % WT Binding [15]: 96.3 % WT binding
- Mean % WT Binding [16]: 64.7 % WT binding
- Mean % WT Binding [17]: 93.4 % WT binding
- Mean % WT Binding [18]: 99.1 % WT binding
- Mean % WT Binding [19]: 81.4 % WT binding
- Mean % WT Binding [20]: 1020 % WT binding
- Mean % WT Binding [21]: 292 % WT binding
- Mean % WT Binding [22]: 77.5 % WT binding
- Mean % WT Binding [23]: 140 % WT binding
- Mean % WT Binding [24]: 446 % WT binding
- Mean % WT Binding [25]: 92.5 % WT binding
- Mean % WT Binding [26]: 90.4 % WT binding
- Mean % WT Binding [27]: 138 % WT binding
- Mean % WT Binding [28]: 932 % WT binding
- Mean % WT Binding [29]: 75.9 % WT binding
- Mean % WT Binding [30]: 114 % WT binding
- Mean % WT Binding [31]: 77.2 % WT binding
- Mean % WT Binding [32]: 99.3 % WT binding
- Mean % WT Binding [33]: 113 % WT binding
- Mean % WT Binding [34]: 155 % WT binding
- Mean % WT Binding [35]: 132 % WT binding

B3: Refmab #2 (antibody, V domains shown)
VH: QVQLVQSGAEVKKPGSSVKVSCKASGGTFSDYAISWVRQAPGQGLEWMGRIIPILGVADYAQKFQGRVTITADKSTRTAYMELSSLRSEDTAVYYCARNWADAFDIWGQGTMVTVSS
VL: DIQLTQSPSSLSASVGDRVTITCRASQGISSVLAWYQQKPGKAPKLLIYDASSLESGVPSRFSGSGSGTDFTLTISSLQPEDFATYYCQQFDSSITFGQGTKLEIK
notes: as for B1
- Mean % WT Binding [1]: 112 % WT binding
- Mean % WT Binding [2]: 112 % WT binding
- Mean % WT Binding [36]: 98.5 % WT binding
- Mean % WT Binding [3]: 114 % WT binding
- Mean % WT Binding [4]: 116 % WT binding
- Mean % WT Binding [5]: 137 % WT binding
- Mean % WT Binding [6]: 120 % WT binding
- Mean % WT Binding [7]: 92.2 % WT binding
- Mean % WT Binding [8]: 120 % WT binding
- Mean % WT Binding [9]: 3.6 % WT binding
- Mean % WT Binding [10]: 119 % WT binding
- Mean % WT Binding [11]: 113 % WT binding
- Mean % WT Binding [12]: 104 % WT binding
- Mean % WT Binding [13]: 132 % WT binding
- Mean % WT Binding [14]: 103 % WT binding
- Mean % WT Binding [15]: 117 % WT binding
- Mean % WT Binding [16]: 43.7 % WT binding
- Mean % WT Binding [17]: 108 % WT binding
- Mean % WT Binding [18]: 109 % WT binding
- Mean % WT Binding [19]: 99.6 % WT binding
- Mean % WT Binding [20]: 130 % WT binding
- Mean % WT Binding [21]: 82 % WT binding
- Mean % WT Binding [22]: 58.7 % WT binding
- Mean % WT Binding [23]: 102 % WT binding
- Mean % WT Binding [24]: 140 % WT binding
- Mean % WT Binding [25]: 109 % WT binding
- Mean % WT Binding [26]: 132 % WT binding
- Mean % WT Binding [27]: 115 % WT binding
- Mean % WT Binding [28]: 107 % WT binding
- Mean % WT Binding [29]: 89.6 % WT binding
- Mean % WT Binding [30]: 126 % WT binding
- Mean % WT Binding [31]: 93.2 % WT binding
- Mean % WT Binding [32]: 107 % WT binding
- Mean % WT Binding [33]: 110 % WT binding
- Mean % WT Binding [34]: 117 % WT binding
- Mean % WT Binding [35]: 109 % WT binding

B4: Refmab #1 (antibody, V domains shown)
VH: EVQLVQSGAEVKKPGSSVKVSCKASGYTITDSNIHWVRQAPGQSLEWIGYIYPYNGGTDYNQKFKNRATLTVDNPTNTAYMELSSLRSEDTAFYYCVNGNPWLAYWGQGTLVTVSS
VL: DIQLTQSPSTLSASVGDRVTITCRASESLDNYGIRFLTWFQQKPGKAPKLLMYAASNQGSGVPSRFSGSGSGTEFTLTISSLQPDDFATYYCQQTKEVPWSFGQGTKVEVK
notes: The alanine scan used IgG or Fab; also called hP67.6
- Mean % WT Binding [1]: 110 % WT binding
- Mean % WT Binding [2]: 88.5 % WT binding
- Mean % WT Binding [36]: 72.3 % WT binding
- Mean % WT Binding [3]: 87 % WT binding
- Mean % WT Binding [4]: 96.9 % WT binding
- Mean % WT Binding [5]: 53.2 % WT binding
- Mean % WT Binding [6]: 98.6 % WT binding
- Mean % WT Binding [7]: 71.6 % WT binding
- Mean % WT Binding [8]: 83.8 % WT binding
- Mean % WT Binding [9]: 107 % WT binding
- Mean % WT Binding [10]: 83.1 % WT binding
- Mean % WT Binding [11]: 103 % WT binding
- Mean % WT Binding [12]: 85.3 % WT binding
- Mean % WT Binding [13]: 81.1 % WT binding
- Mean % WT Binding [14]: 88.6 % WT binding
- Mean % WT Binding [15]: 101 % WT binding
- Mean % WT Binding [16]: 31.5 % WT binding
- Mean % WT Binding [17]: 100 % WT binding
- Mean % WT Binding [18]: 94.9 % WT binding
- Mean % WT Binding [19]: 95.4 % WT binding
- Mean % WT Binding [20]: 109 % WT binding
- Mean % WT Binding [21]: 107 % WT binding
- Mean % WT Binding [22]: 51.8 % WT binding
- Mean % WT Binding [23]: 84.9 % WT binding
- Mean % WT Binding [24]: 118 % WT binding
- Mean % WT Binding [25]: 87.7 % WT binding
- Mean % WT Binding [26]: 92.5 % WT binding
- Mean % WT Binding [27]: 86.6 % WT binding
- Mean % WT Binding [28]: 92.4 % WT binding
- Mean % WT Binding [29]: 85.8 % WT binding
- Mean % WT Binding [30]: 84.4 % WT binding
- Mean % WT Binding [31]: 86.9 % WT binding
- Mean % WT Binding [32]: 82.3 % WT binding
- Mean % WT Binding [33]: 96.3 % WT binding
- Mean % WT Binding [34]: 86.3 % WT binding
- Mean % WT Binding [35]: 87.7 % WT binding
